# Where a chain is given by its changes, count along the chain named. In names and notes the source's numbering stands.
# T1: Robo1 IG5-2ドメイン(B5209B抗体が認識するイムノグロブリン様ドメインの5番目) (Homo sapiens (Human), UniProt Q9Y6N7 455-543)
# T1 construct: Antigen fragment of Robo1 used in ITC and in the co-crystal structure
# T1 sequence: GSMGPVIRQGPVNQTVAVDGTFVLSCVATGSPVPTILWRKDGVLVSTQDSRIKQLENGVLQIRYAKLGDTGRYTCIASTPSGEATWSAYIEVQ
# B1: B5209B 一本鎖抗体(scFv) 野生型 (scFv)
# scFv: MAEVQLVESGGGVVQPGGSLKLSCAASGFTFSTYDMSWVRQTPDKRLELVATINSNGGSTYYPDSVKGRFTSSRDNAKNILYLQMSSLKSEDTAMYYCAREALLRPPYYALDYWGQGTSVTVSSAGGGGSGGGGSGGGGSGGGGSDILDIQMTQSPASLSASVGETVTITCGASENIYGALTWYQRKQGKSPQLLIYGAINLADDKSSRFSGSGSGRQYSLKISSLHPDDVATYYCQNVLSTPFTFGSGTKLEIKAAGHHHHHH
# notes: Expressed in E. coli Origami2(DE3) from pRA2; also called B5209B scFv; WT
# B2: B5209B scFv HP103A変異体 (scFv)
# scFv: QLVESGGGVVQPGGSLKLSCAASGFTFSTYDMSWVRQTPDKRLELVATINSNGGSTYYPDSVKGRFTSSRDNAKNILYLQMSSLKSEDTAMYYCAREALLRPAYYALDYWGQGTSVTVSSGGGGSGGGGSGGGGSGGGGSDIQMTQSPASLSASVGETVTITCGASENIYGALTWYQRKQGKSPQLLIYGAINLADDKSSRFSGSGSGRQYSLKISSLHPDDVATYYCQNVLSTPFTFGSGTKLEIKHHHHHH
# B3: B5209B scFv LY30A変異体 (scFv)
# scFv: B2 scFv with A103P, Y170A
# Assays:
# [1] = molecular target: T1, Robo1 …; assay: co-crystal structure of scFv and IG5-2
# [2] = molecular target: T1, Robo1 …; assay: ITC with molecular dynamics interpretation
# [3] = molecular target: T1, Robo1 …; assay: ITC, thermodynamic parameters
binder,measurement,setting,value
B1,binding result,[1],binds
B2,binding result,[2],binds
B3,binding result,[3],binds

# — patent JP2015097496A (dated 2015)
